Series [1] concerns the target T1, Androgen receptor (AR), full-length (Homo sapiens, UniProt P10275 P10275:1-920). The series can be described thus: EMSA; 10 nM R1881, 30 mM KCl, 2 mM MgCl2, pH 7.5, poly(dI-dC); abolished by 100-fold unlabeled wild-type competitor. As to conditions: tags: none stated; cDNA from pSVAR0 in pBluescript II SK+, T7/wheat germ extract (Promega); chain copies: 2; label: 32P 5' end. The source says: (§1) Double-stranded oligonucleotides constituting either the wild-type ARE or a mutated version thereof at −186, relative to the TARP transcription initiation site, were 5′end labeled with […] using T4 polynucleotide kinase (Amersham Bioscience, Piscataway, N.J.). The wild-type oligonucleotide sequence was […] and includes the ARE[−186] sequence of the TARP promoter. The corresponding oligonucleotide sequence with the mutated version of the ARE[−186] was […]. Full-length human AR cDNA was subcloned from PSVAR0 (Brinkmann et al., J. Steroid Biochem., 34: 307-310, 1989) to pBluescript II SK+ (Stratagene). In vitro-translated human AR was produced by transcription-coupled translation by using T7 RNA polymerase and wheat germ extract (Promega). Translated AR was incubated with either wild-type ARE[−186] probe or mutated ARE[−186] probe in a buffer containing 20 mM HEPES (pH 7.5), 30 mM KCl, 2 mM MgCl₂, 1 mM EDTA, 1 mM dithioerythritol, 1 mM phenylmethylsulfonyl fluoride, 10 nM R1881, 15% glycerol, 1 μg poly(dI-dC)poly(dI-dC) and 1 μg BSA. Samples were resolved by electrophoresis on 5% TBE/polyacrylamide gels. The gels were dried and subjected to autoradiography.

The target in series [2] is T1, Androgen receptor (AR), full-length. Kind of series: EMSA; 10 nM R1881, 30 mM KCl, 2 mM MgCl2, pH 7.5, poly(dI-dC). Particulars: tags: none stated; cDNA from pSVAR0 in pBluescript II SK+, T7/wheat germ extract (Promega); chain copies: 2; label: 32P 5' end.
Source text: as §1

T1 sequence (P10275 whole entry, one chain of several): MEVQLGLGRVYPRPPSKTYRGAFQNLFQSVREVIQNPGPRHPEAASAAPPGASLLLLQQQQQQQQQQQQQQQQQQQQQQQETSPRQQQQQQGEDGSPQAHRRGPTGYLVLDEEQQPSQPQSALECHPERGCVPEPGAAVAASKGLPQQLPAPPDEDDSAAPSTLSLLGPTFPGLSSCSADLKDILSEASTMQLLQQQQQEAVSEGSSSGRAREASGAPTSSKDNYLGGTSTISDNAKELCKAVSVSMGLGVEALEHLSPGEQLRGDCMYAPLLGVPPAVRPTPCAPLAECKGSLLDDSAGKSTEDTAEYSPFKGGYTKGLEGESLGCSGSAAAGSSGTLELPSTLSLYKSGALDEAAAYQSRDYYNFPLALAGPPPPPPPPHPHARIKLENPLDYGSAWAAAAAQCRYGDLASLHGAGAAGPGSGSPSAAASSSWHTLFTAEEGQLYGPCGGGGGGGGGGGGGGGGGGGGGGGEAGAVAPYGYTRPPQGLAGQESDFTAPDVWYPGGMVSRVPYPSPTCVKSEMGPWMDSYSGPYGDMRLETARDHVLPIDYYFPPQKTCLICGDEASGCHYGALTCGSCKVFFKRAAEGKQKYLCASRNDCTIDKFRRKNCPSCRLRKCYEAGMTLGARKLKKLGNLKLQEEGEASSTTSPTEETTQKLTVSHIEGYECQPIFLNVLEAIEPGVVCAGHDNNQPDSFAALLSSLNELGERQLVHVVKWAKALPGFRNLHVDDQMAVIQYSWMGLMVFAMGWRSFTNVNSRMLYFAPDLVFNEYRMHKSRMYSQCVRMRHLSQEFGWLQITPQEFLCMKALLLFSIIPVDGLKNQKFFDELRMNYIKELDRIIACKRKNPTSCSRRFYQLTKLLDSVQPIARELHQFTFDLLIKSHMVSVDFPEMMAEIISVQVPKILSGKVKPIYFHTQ

B1: wild-type ARE[-186] TARP promoter oligo (dsDNA)
DNA 1: GCAAGGTGAGGTCAGTTCTTAAA
DNA 2: TTTAAGAACTGACCTCACCTTGC
On to B1, for which the binding result in series [1] is recorded as “binds”.

B2: mutated ARE[-186] oligo (dsDNA)
DNA 1: GCAAGGTGTGGTCAACTATTAAA
DNA 2: TTTAATAGTTGACCACACCTTGC
On to B2, for which, in series [2], the binding result was “no binding”.

Values taken from patent US20070032439, “Tarp promoter and uses thereof” (published 2007).
